Data taken from publication PMC3910112.

Target: fluorescein-labelled mouse EAG1 eag domain (FL-eag) (mouse) (UniProt Q60603)
Assay: fluorescence polarisation

- Kd: 13.2 µM
Substance: mouse EAG1 (mEAG1) CNBHD (residues 552-724) (from UniProt Q60603 552-724) (domain or fragment)
